The target in one data set is T1, NOVA1hu (humanized) (UniProt Q9JKN6 1-507, I197V).
T1 sequence: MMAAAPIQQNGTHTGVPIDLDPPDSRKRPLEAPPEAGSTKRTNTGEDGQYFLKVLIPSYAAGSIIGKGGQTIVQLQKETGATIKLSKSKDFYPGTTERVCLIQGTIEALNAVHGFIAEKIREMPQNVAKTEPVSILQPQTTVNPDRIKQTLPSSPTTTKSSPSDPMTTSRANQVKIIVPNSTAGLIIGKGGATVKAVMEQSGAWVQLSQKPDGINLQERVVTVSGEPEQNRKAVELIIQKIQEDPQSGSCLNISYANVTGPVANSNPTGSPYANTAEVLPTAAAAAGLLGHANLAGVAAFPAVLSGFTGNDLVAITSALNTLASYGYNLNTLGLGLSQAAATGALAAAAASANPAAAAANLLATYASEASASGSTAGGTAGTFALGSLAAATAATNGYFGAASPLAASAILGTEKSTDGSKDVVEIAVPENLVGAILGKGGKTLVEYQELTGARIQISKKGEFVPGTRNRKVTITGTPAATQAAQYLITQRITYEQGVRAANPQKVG
Nature of the data set: EMSA; text prints 105.83 ± 8.3; figure and source data 105.3; 10 mM HEPES (pH not stated), 3 mM MgCl2, 150 mM NaCl, 5% glycerol, 0.1 mM DTT, 0.1 U/ul RNase OUT, 10 mg/ml yeast tRNA, 1 mg/ml poly dI-dC, 22 C, 60 min; protein 0.5-2 pmol, RNA 0.08 pmol per reaction; 8% native gel. Conditions: protein: recombinant; tags: GST tag (N-term) cleaved by PreScission; pGEX6p1 remnant; label: 32P; hairpin.

A further data set concerns the target T2, NOVA1wt (UniProt Q9JKN6 1-507).
T2 sequence: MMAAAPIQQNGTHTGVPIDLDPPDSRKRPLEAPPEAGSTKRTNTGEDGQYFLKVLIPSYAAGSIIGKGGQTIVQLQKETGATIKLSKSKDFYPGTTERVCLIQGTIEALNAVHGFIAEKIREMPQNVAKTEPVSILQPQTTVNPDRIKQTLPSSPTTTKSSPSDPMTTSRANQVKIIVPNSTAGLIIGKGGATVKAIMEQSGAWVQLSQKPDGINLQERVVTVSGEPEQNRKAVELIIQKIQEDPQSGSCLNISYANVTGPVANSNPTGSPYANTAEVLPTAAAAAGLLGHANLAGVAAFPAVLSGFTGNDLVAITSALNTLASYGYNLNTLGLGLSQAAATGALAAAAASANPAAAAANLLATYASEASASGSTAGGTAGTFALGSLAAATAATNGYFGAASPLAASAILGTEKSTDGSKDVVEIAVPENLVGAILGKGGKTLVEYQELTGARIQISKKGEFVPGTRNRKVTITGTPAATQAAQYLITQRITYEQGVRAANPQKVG
Nature of the data set: EMSA; 10 mM HEPES (pH not stated), 3 mM MgCl2, 150 mM NaCl, 5% glycerol, 0.1 mM DTT, 0.1 U/ul RNase OUT, 10 mg/ml yeast tRNA, 1 mg/ml poly dI-dC, 22 C, 60 min; protein 0.5-2 pmol, RNA 0.08 pmol per reaction; 8% native gel. To be noted: protein: recombinant; tags: GST tag (N-term) cleaved by PreScission; pGEX6p1 remnant; label: 32P; hairpin. Background: Mobility shift assays separate free from complexed probe on a gel.

For orientation: Kd means the free concentration of one partner at which half of the binding sites on the other are occupied at equilibrium, for simple one-to-one binding.

B1: UCAU RNA probe (stem-loop) (structured_RNA)
RNA: CCUUAUCAUGCUGACUCACGUCAUUUCAUCUCAUCAAGGGAGUCAGUGGGAUA
B1: the figures for the Kd in the data set with NOVA1hu (humanized) and in the data set with NOVA1wt were 105 ± 8.3 nM and 105 ± 11.6 nM, respectively.

The values above are taken from article PMC11836289, “A humanized NOVA1 splicing factor alters mouse vocal communications”.
